According to patent US20250115655A1, “PHARMACEUTICALS AND DEVICES FOR THE COVALENT IMMOBILIZATION TO THE EXTRACELLULAR MATRIX BY TRANSGLUTAMINASE” (JULIUS-MAXIMILIANS-UNIVERSITÄT WÜRZBURG, priority 2017, published 2025):
Blank lines part the entries; values can stand above or below the molecule they belong to. Primed or numbered codes have the meaning given here. Ends that are not written are not given here. DBCO′ = not defined here

What was measured:
Factor XIIIa [1] = target: T1, Factor XIIIa (Homo sapiens, UniProt P00488); assay: Crosslinking of D domain peptides to a glutamine substrate derived from α-2 plasmin inhibitor, catalyzed by FXIIIa, RP-HPLC; assay type: biochemical
T1 construct: purchased Fibrogammin®
T1 sequence (P00488 39-732 limits assumed): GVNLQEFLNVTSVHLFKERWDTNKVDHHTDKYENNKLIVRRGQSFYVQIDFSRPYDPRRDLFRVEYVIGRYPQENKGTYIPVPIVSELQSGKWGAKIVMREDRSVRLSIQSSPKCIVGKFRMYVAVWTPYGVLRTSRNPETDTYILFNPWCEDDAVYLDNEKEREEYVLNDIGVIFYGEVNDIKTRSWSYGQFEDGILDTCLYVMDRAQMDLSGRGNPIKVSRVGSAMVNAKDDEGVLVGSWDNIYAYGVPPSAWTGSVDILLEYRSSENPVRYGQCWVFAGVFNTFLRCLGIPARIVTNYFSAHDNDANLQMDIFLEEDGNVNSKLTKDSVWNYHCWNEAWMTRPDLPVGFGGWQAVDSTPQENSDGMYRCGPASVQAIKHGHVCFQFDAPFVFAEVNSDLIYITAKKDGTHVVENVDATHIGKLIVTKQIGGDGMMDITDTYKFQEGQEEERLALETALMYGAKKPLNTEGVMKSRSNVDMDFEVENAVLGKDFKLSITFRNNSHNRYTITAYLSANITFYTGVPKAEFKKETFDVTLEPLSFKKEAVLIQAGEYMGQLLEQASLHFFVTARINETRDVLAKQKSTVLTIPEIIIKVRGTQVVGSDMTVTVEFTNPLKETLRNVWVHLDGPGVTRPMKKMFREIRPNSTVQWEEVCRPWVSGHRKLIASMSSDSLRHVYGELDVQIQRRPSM
From the text: Using solid phase peptide synthesis, the isolated peptide sequence of the D domain of human IGF-I (SEQ ID NO: 1) and mouse IGF-I (SEQ ID NO: 6) were synthesized and purified using preparative HPLC to achieve >95% purity. Additionally, a collection of N-terminally truncated versions of both sequences were created, in order to test if 7 or less amino acids are sufficient to be recognized by Factor XIIIa. According to a trypsin digest of coupled IGF-I, only K68 is modified and therefore, a reduction of the sequence to the last 3 amino acids could be possible. The truncated versions were manufactured and purified accordingly. Lyophilized peptides were dissolved in Tris buffer (20 mM Tris-HCl, 150 mM NaCl, pH 7.6) and reacted with a glutamine substrate (SEQ ID NO: 13, derived from α-2 plasmin inhibitor) in presence of 0.1 M calcium chloride and 10 U/ml Factor XIIIa (Fibrogammin®, activated with 0.02 U/ml thrombin). Following 30 minutes incubation at 37° C., the coupling reaction was stopped and the amount of crosslinked peptide analyzed using analytical RP-HPLC. The crosslinking ratios using equimolar amounts of both peptides (D domain and glutamine acceptor) are depicted in Table 1.

fibronectin [2] = assay: Immobilization of dye-D domain conjugate on cell derived, isolated ECM / fibronectin using FXIIIa; assay type: biochemical; conditions: ECM from NIH3T3 fibroblasts (FIG. 2)
From the text: As proof of concept (for covalent attachment of a bioactive factor to extracellular matrix (ECM), we modified the D domain of IGF-I (SEQ ID NO: 1) with an dibenzocyclooctyne group (DBCO) at the N-terminus (SEQ: DBCO-PLKPAKSA), followed by coupling of a small molecule (fluorescent dye Azide Fluor 488) onto cell derived, isolated ECM. The ECM was produced by NIH3T3 fibroblasts and on day 6 decellularized and washed to remove cell debris and adsorbed proteins. Taking advantage of the intrinsic property of fibronectin, representing a glutamine donor for Factor XIII, we immobilized the fluorescent dye-D domain conjugate on the N-terminus of fibronectin without impairment of ECM structure and integrity.
FIG. 2: Immobilization of the covalent conjugate of the D domain (SEQ ID NO: 1) and the small molecule Azide Fluor 488 on fibronectin (isolated from human plasma) catalyzed by transglutaminase. The conjugates coupled to fibronectin in absence (lane #1) and presence (lane #2) of Factor XIIIa were transferred to a 5% SDS-PAGE gel and analyzed for fluorescence.
FIG. 3: Confocal laser scanning microscopy images of the Azide Fluor 488-D domain conjugate immobilized on isolated ECM in presence (panel 1) or absence (panel 2) of factor XIIIa. The green fluorescence of the immobilized dye-peptide conjugate co-localized with fibronectin (red fluorescence).

Factor XIIIa [3] = target: T1, Factor XIIIa; assay: Crosslinking of D domain peptides to a glutamine substrate derived from α-2 plasmin inhibitor, catalyzed by FXIIIa, RP-HPLC; assay type: biochemical; remark: listed apart in the source
fibronectin [4] = assay: Immobilization of eGFP modified with the D domain on plasma fibronectin and ECM using factor XIIIa; assay type: biochemical
Protocol: The same coupling reaction as described for IGF-I (Example 3) was also performed with enhanced green fluorescent protein (eGFP), previously modified with the D domain of human IGF-I (SEQ ID NO: 1), and immobilized using factor XIIIa (FIGS. 8A-8B). […] FIGS. 8A-8B: (8A) Western Blot of enhanced green fluorescent protein modified with the D domain (SEQ ID NO: 1) (eGFP-D domain, lane #1) after incubation with fibronectin in absence (lane #2) and presence (lane #3) of Factor XIIIa. (8B) Confocal laser scanning microscopy images of eGFP modified with the D domain (SEQ ID NO: 1) and immobilized on isolated ECM in presence (panel 1) or absence (panel 2) of factor XIIIa. The immobilized eGFP was visualized with a monoclonal eGFP antibody (green) und co-localized with fibronectin (red).

[5] = target: T2, D domain of human IGF-I (SEQ ID NO: 1)
T2 chain: PLKPAKSA

[6] = target: T3, D domain of mouse IGF-I (SEQ ID NO: 6)
T3 chain: PLKPTKAA

[7] = target: T4, N-terminally truncated D domain of human IGF-I, SEQ ID NO: 2
T4 chain: LKPAKSA

[8] = target: T5, N-terminally truncated D domain of human IGF-I, SEQ ID NO: 3
T5 chain: KPAKSA

[9] = target: T6, N-terminally truncated D domain of human IGF-I, SEQ ID NO: 4
T6 chain: PAKSA

[10] = target: T7, N-terminally truncated D domain of human IGF-I, SEQ ID NO: 5
T7 chain: AKSA

[11] = target: T8, N-terminally truncated D domain of mouse IGF-I, SEQ ID NO: 10
T8 chain: TKAA

[12] = target: T9, N-terminally truncated D domain of mouse IGF-I, SEQ ID NO: 7
T9 chain: LKPTKAA

[13] = target: T10, N-terminally truncated D domain of mouse IGF-I, SEQ ID NO: 8
T10 chain: KPTKAA

[14] = target: T11, N-terminally truncated D domain of mouse IGF-I, SEQ ID NO: 9
T11 chain: PTKAA

SEQ ID NO: 10 (-AS 67) = target: T12, SEQ ID NO: 10 (-AS 67)
T12 chain: KAA

SEQ ID NO: 5 (-AS 67) = target: T13, SEQ ID NO: 5 (-AS 67)
T13 chain: KSA

[15] = equimolar peptide and glutamine substrate, incubation for 30 minutes with 10 U/ml FXIIIa, 37° C.

Molecule: AKSA (listed as Homo sapiens) [SEQ ID NO: 5, N-terminally truncated human D domain]
Crosslinking Efficacy (1:1 molar ratio)* (Factor XIIIa [1]; [15]): 49.52 ± 1.29

Molecule: Alexa488-D domain: DBCO-PLKPAKSA coupled with fluorescent dye Azide Fluor 488 ({Azide Fluor 488-DBCO′}-PLKPAKSA)
immobilization on ECM (fibronectin [2]): high efficacy

Molecule: KPAKSA (listed as Homo sapiens) [SEQ ID NO: 3, N-terminally truncated human D domain]
Crosslinking Efficacy (1:1 molar ratio)* (Factor XIIIa [1]; [15]): 58.37 ± 2.10

Molecule: KSA (listed as Homo sapiens) [SEQ ID NO: 5 (−AS 67)]
Crosslinking Efficacy (1:1 molar ratio)* (Factor XIIIa [1]; [15]): 21.40 ± 1.96

Molecule: LKPAKSA (listed as Homo sapiens) [SEQ ID NO: 2, N-terminally truncated human D domain]
Crosslinking Efficacy (1:1 molar ratio)* (Factor XIIIa [1]; [15]): 72.45 ± 1.57

Molecule: PAKSA (listed as Homo sapiens) [SEQ ID NO: 4, N-terminally truncated human D domain]
Crosslinking Efficacy (1:1 molar ratio)* (Factor XIIIa [1]; [15]): 44.18 ± 3.23

Molecule: PLKPAKSA (listed as Homo sapiens) [SEQ ID NO: 1, isolated D domain of human IGF-I]
Crosslinking Efficacy (1:1 molar ratio)* (Factor XIIIa [1]; [15]): 82.94 ± 0.79
Crosslinking Efficacy (1:1 molar ratio)* (Factor XIIIa [1]; molar excess of the glutamine sequence 1): 81.06 ± 5.13
Crosslinking Efficacy (1:1 molar ratio)* (Factor XIIIa [3]; molar excess of the glutamine sequence 0.5): 44.48 ± 2.45
Crosslinking Efficacy (1:1 molar ratio)* (Factor XIIIa [3]; molar excess of the glutamine sequence 2.5): 84.67 ± 2.02
Crosslinking Efficacy (1:1 molar ratio)* (Factor XIIIa [3]; molar excess of the glutamine sequence 3.75): 87.53 ± 5.33
Crosslinking Efficacy (1:1 molar ratio)* (Factor XIIIa [3]; molar excess of the glutamine sequence 5): 84.91 ± 6.23
Crosslinking Efficacy (1:1 molar ratio)* (Factor XIIIa [3]; molar excess of the glutamine sequence 10): 88.67 ± 6.52
conversion, time course of the coupling reaction with the Q peptide (Factor XIIIa [3]; within 10 minutes (FIG. 1)): about 80%

Molecule: PLKPTKAA (listed as Mus musculus) [SEQ ID NO: 6, isolated D domain of mouse IGF-I]
Crosslinking Efficacy (1:1 molar ratio)* (Factor XIIIa [1]; [15]): 84.16 ± 7.76

Molecule: eGFP-D domain conjugate: enhanced green fluorescent protein modified with the D domain of human IGF-I (SEQ ID NO: 1) (PLKPAKSA; also: conjugated to eGFP)
conjugation to plasma fibronectin (western blot) (fibronectin [4]; factor XIIIa (FIG. 8A)): effective conjugation
immobilization of the modified protein on ECM (fibronectin [4]; factor XIIIa (FIG. 8B)): confirmed

B1: human Factor XIIIa (Fibrogammin, activated with 0.02 U/ml thrombin) (protein)
chain: GVNLQEFLNVTSVHLFKERWDTNKVDHHTDKYENNKLIVRRGQSFYVQIDFSRPYDPRRDLFRVEYVIGRYPQENKGTYIPVPIVSELQSGKWGAKIVMREDRSVRLSIQSSPKCIVGKFRMYVAVWTPYGVLRTSRNPETDTYILFNPWCEDDAVYLDNEKEREEYVLNDIGVIFYGEVNDIKTRSWSYGQFEDGILDTCLYVMDRAQMDLSGRGNPIKVSRVGSAMVNAKDDEGVLVGSWDNIYAYGVPPSAWTGSVDILLEYRSSENPVRYGQCWVFAGVFNTFLRCLGIPARIVTNYFSAHDNDANLQMDIFLEEDGNVNSKLTKDSVWNYHCWNEAWMTRPDLPVGFGGWQAVDSTPQENSDGMYRCGPASVQAIKHGHVCFQFDAPFVFAEVNSDLIYITAKKDGTHVVENVDATHIGKLIVTKQIGGDGMMDITDTYKFQEGQEEERLALETALMYGAKKPLNTEGVMKSRSNVDMDFEVENAVLGKDFKLSITFRNNSHNRYTITAYLSANITFYTGVPKAEFKKETFDVTLEPLSFKKEAVLIQAGEYMGQLLEQASLHFFVTARINETRDVLAKQKSTVLTIPEIIIKVRGTQVVGSDMTVTVEFTNPLKETLRNVWVHLDGPGVTRPMKKMFREIRPNSTVQWEEVCRPWVSGHRKLIASMSSDSLRHVYGELDVQIQRRPSM
Crosslinking Efficacy (1:1 molar ratio) to the glutamine substrate derived from α2PI, 30 min, 10 U/ml FXIIIa, RP-HPLC [5]: 82.9%
conversion in the time course of the coupling reaction between the Q peptide and the D domain [5]: achieving about 80% conversion within 10 minutes
Crosslinking Efficacy (1:1 molar ratio) to the glutamine substrate derived from α2PI, 30 min, 10 U/ml FXIIIa, RP-HPLC [6]: 84.2%
Crosslinking Efficacy (1:1 molar ratio) to the glutamine substrate derived from α2PI, 30 min, 10 U/ml FXIIIa, RP-HPLC [7]: 72.5%
Crosslinking Efficacy (1:1 molar ratio) to the glutamine substrate derived from α2PI, 30 min, 10 U/ml FXIIIa, RP-HPLC [8]: 58.4%
Crosslinking Efficacy (1:1 molar ratio) to the glutamine substrate derived from α2PI, 30 min, 10 U/ml FXIIIa, RP-HPLC [9]: 44.2%
Crosslinking Efficacy (1:1 molar ratio) to the glutamine substrate derived from α2PI, 30 min, 10 U/ml FXIIIa, RP-HPLC [10]: 49.5%
Crosslinking Efficacy (1:1 molar ratio) to the glutamine substrate derived from α2PI, 30 min, 10 U/ml FXIIIa, RP-HPLC [11]: 39.3%
Crosslinking Efficacy (1:1 molar ratio) to the glutamine substrate derived from α2PI, 30 min, 10 U/ml FXIIIa, RP-HPLC [12]: 69.4%
Crosslinking Efficacy (1:1 molar ratio) to the glutamine substrate derived from α2PI, 30 min, 10 U/ml FXIIIa, RP-HPLC [13]: 55.7%
Crosslinking Efficacy (1:1 molar ratio) to the glutamine substrate derived from α2PI, 30 min, 10 U/ml FXIIIa, RP-HPLC [14]: 33.7%
Crosslinking Efficacy (1:1 molar ratio) to the glutamine substrate derived from α2PI, 30 min, 10 U/ml FXIIIa, RP-HPLC (SEQ ID NO: 10 (-AS 67)): 24.7%
Crosslinking Efficacy (1:1 molar ratio) to the glutamine substrate derived from α2PI, 30 min, 10 U/ml FXIIIa, RP-HPLC (SEQ ID NO: 5 (-AS 67)): 21.4%

Other lines, results leading:

Crosslinking Efficacy (1:1 molar ratio)* (Factor XIIIa [1]; [15]): 24.68 ± 3.42
Molecule: KAA (listed as Mus musculus) [SEQ ID NO: 10 (−AS 67)]

Crosslinking Efficacy (1:1 molar ratio)* (Factor XIIIa [1]; [15]): 55.68 ± 3.25
Molecule: KPTKAA (listed as Mus musculus) [SEQ ID NO: 8, N-terminally truncated mouse D domain]

Crosslinking Efficacy (1:1 molar ratio)* (Factor XIIIa [1]; [15]): 69.42 ± 8.62
Molecule: LKPTKAA (listed as Mus musculus) [SEQ ID NO: 7, N-terminally truncated mouse D domain]

Crosslinking Efficacy (1:1 molar ratio)* (Factor XIIIa [1]; [15]): 33.69 ± 1.41
Molecule: PTKAA (listed as Mus musculus) [SEQ ID NO: 9, N-terminally truncated mouse D domain]

Crosslinking Efficacy (1:1 molar ratio)* (Factor XIIIa [1]; [15]): 39.26 ± 4.07
Molecule: TKAA (listed as Mus musculus) [SEQ ID NO: 10, N-terminally truncated mouse D domain]
